The values below come from paper PMC3891507 (2014).

For assay [1], the target named is Laminin 111 (Mus musculus, UniProt P19137, LARGE-glycan (control myotubes), Ca2+). In words: solid-phase binding assay.
The target of assay [2] is Laminin 111 (Mus musculus, UniProt P19137, shortened LARGE-glycan (LargeKD myotubes), Ca2+). In words: solid-phase binding assay.

B1: alpha-dystroglycan (protein)
chain: HWPSEPSEAVRDWKNQLEASMHSVLSDFQEAVPTVVGIPDGTAVVGRSFRVSIPTDLIASSGEIIKVSAAGKEALPSWLHWDPHSHILEGLPLDTDKGVHYISVSAARLGANGSHVPQTSSVFSIEVYPEDHNEPQSVRAASSDPGEVVPSACAADEPVTVLTVILDADLTKMTPKQRIDLLNRMQSFSEVELHNMKLVPVVNNRLFDMSAFMAGPGNAKKVVENGALLSWKLGCSLNQNSVPDIRGVETPAREGAMSAQLGYPVVGWHIANKKPTLPKRLRRQIHATPTPVTAIGPPTTAIQEPPSRIVPTPTSPAIAPPTETMAPPVRDPVPGKPTVTIRTRGAIIQTPTLGPIQPTRVSEAGTTVPGQIRPTLTIPGYVEPTAVITPPTTTTKKPRVSTPKPATPSTDSSTTTTRRPTKKPRTPRPVPRVTTKAPITRLETASPPTRIRTTTSGVPRGGEPNQRPELKNHIDRVDAWVGTYFEVKIPSDTFYDNEDTTTDKLKLTLKLREQQLVGEKSWVQFNSNSQLMYGLPDSSHVGKHEYFMHATDKGGLSAVDAFEIHVHKRPQGDKAPARFKARLAGDPAPVVNDIHKKIALVKKLAFAFGDRNCSSITLQNITRG
The term Kd denotes the equilibrium constant for the complex coming apart. Low values mean tighter binding, high ones weaker binding. On to B1, for which the Kd in assay [1] was found to be 2.93 nM; in assay [2], 4.75 nM.
